Reference: US20150140169

Target: T1, alpha-s1 casein from Bos taurus
T1 chain: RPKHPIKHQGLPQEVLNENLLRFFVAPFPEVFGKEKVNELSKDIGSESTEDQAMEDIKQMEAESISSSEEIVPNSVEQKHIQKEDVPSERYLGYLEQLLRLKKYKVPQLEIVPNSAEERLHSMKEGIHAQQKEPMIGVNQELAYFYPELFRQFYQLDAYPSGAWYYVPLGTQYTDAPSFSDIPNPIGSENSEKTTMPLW

B1: bovine chymosin B variant #74 (A51V, K221M) (protein)
chain: GEVASVPLTNYLDSQYFGKIYLGTPPQEFTVLFDTGSSDFWVPSIYCKSNVCKNHQRFDPRKSSTFQNLGKPLSIHYGTGSMQGILGYDTVTVSNIVDIQQTVGLSTQEPGDVFTYAEFDGILGMAYPSLASEYSIPVFDNMMNRHLVAQDLFSVYMDRNGQESMLTLGAIDPSYYTGSLHWVPVTVQQYWQFTVDSVTISGVVVACEGGCQAILDTGTSMLVGPSSDILNIQQAIGATQNQYGEFDIDCDNLSYMPTVVFEINGKMYPLTPSAYTSQDQGFCTSGFQSENHSQKWILGDVFIREYYSVFDRANNLVGLAKAI
For B1, which “hydrolysis of the first cut in alpha-s1-casein” value (from here on “hydrolysis of the first cut”) is on record?
The value was “show a clear hydrolysis of the first cut in alpha-s1-casein, leading to a rapid formation of fragment alpha-s1-I casein”.

What about the small, 6 hours, 11° C. of the same protein?
Its small, 6 hours, 11° C. is 0 Volume.

And the small, 16 hours, 30° C.?
The small, 16 hours, 30° C. was 5.1e+06 Volume.

What about the small, 24 hours, 11° C. of the same protein?
Its small, 24 hours, 11° C. is 0 Volume.

What about the αs1-I CN, 6 hours, 11° C. of the same protein?
The αs1-I CN, 6 hours, 11° C. was 1.98e+07 Volume.

And the αs1-I CN, 16 hours, 30° C.?
Its αs1-I CN, 16 hours, 30° C. is 1.86e+07 Volume.

What about the αs1-I CN, 24 hours, 11° C. of the same protein?
Its αs1-I CN, 24 hours, 11° C. is 2.47e+07 Volume.

What about the αs1-I CN/αs1 CN, 6 hours, 11° C. of the same protein?
Its αs1-I CN/αs1 CN, 6 hours, 11° C. is 0.9.

What about the αs1-I CN/αs1 CN, 24 hours, 11° C. of the same protein?
The αs1-I CN/αs1 CN, 24 hours, 11° C. was 3.9.

And the αs1 CN, 6 hours, 11° C.?
The αs1 CN, 6 hours, 11° C. was 2.09e+07 Volume.

And the αs1 CN, 16 hours, 30° C.?
Its αs1 CN, 16 hours, 30° C. is 1.8e+06 Volume.

And the αs1 CN, 24 hours, 11° C.?
The αs1 CN, 24 hours, 11° C. was 6.3e+06 Volume.

B2: bovine chymosin B variant #103 (A51I, K221T) (protein)
chain: GEVASVPLTNYLDSQYFGKIYLGTPPQEFTVLFDTGSSDFWVPSIYCKSNICKNHQRFDPRKSSTFQNLGKPLSIHYGTGSMQGILGYDTVTVSNIVDIQQTVGLSTQEPGDVFTYAEFDGILGMAYPSLASEYSIPVFDNMMNRHLVAQDLFSVYMDRNGQESMLTLGAIDPSYYTGSLHWVPVTVQQYWQFTVDSVTISGVVVACEGGCQAILDTGTSTLVGPSSDILNIQQAIGATQNQYGEFDIDCDNLSYMPTVVFEINGKMYPLTPSAYTSQDQGFCTSGFQSENHSQKWILGDVFIREYYSVFDRANNLVGLAKAI
Which results are given for B2?
hydrolysis of the first cut in alpha-s1-casein: show a clear hydrolysis of the first cut in alpha-s1-casein, leading to a rapid formation of fragment alpha-s1-I casein; small, 16 hours, 30° C.: 1.3e+06 Volume; αs1-I CN, 16 hours, 30° C.: 2.03e+07 Volume; αs1 CN, 16 hours, 30° C.: 1.4e+06 Volume

B3: bovine chymosin B variant #98 (A51V, K221V, S135T, A126G, S273Y, Q240E) (protein)
chain: GEVASVPLTNYLDSQYFGKIYLGTPPQEFTVLFDTGSSDFWVPSIYCKSNVCKNHQRFDPRKSSTFQNLGKPLSIHYGTGSMQGILGYDTVTVSNIVDIQQTVGLSTQEPGDVFTYAEFDGILGMGYPSLASEYTIPVFDNMMNRHLVAQDLFSVYMDRNGQESMLTLGAIDPSYYTGSLHWVPVTVQQYWQFTVDSVTISGVVVACEGGCQAILDTGTSVLVGPSSDILNIQQAIGATENQYGEFDIDCDNLSYMPTVVFEINGKMYPLTPYAYTSQDQGFCTSGFQSENHSQKWILGDVFIREYYSVFDRANNLVGLAKAI
With B3 as the protein, how does the “hydrolysis of the first cut” value read?
Its value is “show a clear hydrolysis of the first cut in alpha-s1-casein, leading to a rapid formation of fragment alpha-s1-I casein”.

What about the small, 16 hours, 30° C. of the same protein?
Its small, 16 hours, 30° C. is 1.4e+06 Volume.

And the αs1-I CN, 16 hours, 30° C.?
The αs1-I CN, 16 hours, 30° C. was 1.96e+07 Volume.

And the αs1 CN, 16 hours, 30° C.?
Its αs1 CN, 16 hours, 30° C. is 1.5e+06 Volume.

B4: bovine chymosin B variant #110 (A51V, K221V, N50D, N144H, N160D, S201D, Q242E, M267E, Q280E) (protein)
chain: GEVASVPLTNYLDSQYFGKIYLGTPPQEFTVLFDTGSSDFWVPSIYCKSDVCKNHQRFDPRKSSTFQNLGKPLSIHYGTGSMQGILGYDTVTVSNIVDIQQTVGLSTQEPGDVFTYAEFDGILGMAYPSLASEYSIPVFDNMMHRHLVAQDLFSVYMDRDGQESMLTLGAIDPSYYTGSLHWVPVTVQQYWQFTVDSVTIDGVVVACEGGCQAILDTGTSVLVGPSSDILNIQQAIGATQNEYGEFDIDCDNLSYMPTVVFEINGKEYPLTPSAYTSQDEGFCTSGFQSENHSQKWILGDVFIREYYSVFDRANNLVGLAKAI
With B4 as the protein, how does the “hydrolysis of the first cut” value read?
Its value is “show a clear hydrolysis of the first cut in alpha-s1-casein, leading to a rapid formation of fragment alpha-s1-I casein”.

What about the small, 16 hours, 30° C. of the same protein?
The small, 16 hours, 30° C. was 1.4e+06 Volume.

What about the αs1-I CN, 16 hours, 30° C. of the same protein?
The αs1-I CN, 16 hours, 30° C. was 2.26e+07 Volume.

And the αs1 CN, 16 hours, 30° C.?
The αs1 CN, 16 hours, 30° C. was 3e+06 Volume.
